The conditions of the data set: O-GlcNAc at T241.

On to “YAP (Yes-associated protein): OGT knockdown (shRNA)”, for which the degradation_or_half_life result was “decreases”.

Turning to YAP (Yes-associated protein): T241A, the degradation_or_half_life entry was “decreases” and the other result was “increases”.
